The values that follow come from patent US20210253706A1.

One may read the EC10 as the concentration at which the effect reaches the 10% level. Low readings indicate greater potency, high ones weaker potency. The term EC90 denotes the concentration at which the effect reaches the 90% level. A low value points to greater potency. By Kd is commonly meant the equilibrium constant for the complex coming apart. Low readings indicate higher affinity, high ones lower affinity.

For test [1], the target named is human PD-1 expressed on cells (human) (UniProt Q15116). The test can be described thus: flow cytometry; blocking of 0.1 µg/mL soluble PD-L2 (mFc-Alexa647) binding to HEK 293T cells expressing PD-1 and ICOS. A general note: In flow cytometry, cells or beads pass a laser one at a time.
Sequence of human PD-1 expressed on cells (human) (Q15116 25-288 limits assumed): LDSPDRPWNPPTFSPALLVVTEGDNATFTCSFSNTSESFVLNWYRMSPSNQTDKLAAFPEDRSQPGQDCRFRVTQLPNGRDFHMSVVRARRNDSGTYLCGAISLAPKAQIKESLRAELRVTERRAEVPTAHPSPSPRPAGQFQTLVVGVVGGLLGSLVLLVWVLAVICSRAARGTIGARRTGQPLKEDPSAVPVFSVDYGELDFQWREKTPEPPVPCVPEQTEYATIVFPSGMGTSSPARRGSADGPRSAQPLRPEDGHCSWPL
Test [2] shares this target. The test can be described thus: flow cytometry; blocking of 1 µg/mL PD-L1-mFc-Alexa647 binding to HEK 293T cells expressing PD-1 and ICOS.
Test [3] deals with human ICOS expressed on cells (human) (UniProt Q9Y6W8). Kind of test: flow cytometry; blocking of 0.5 µg/mL ICOSL-mFc-Alex647 binding to HEK 293T cells expressing PD-1 and ICOS.
Sequence of human ICOS expressed on cells (human) (Q9Y6W8 21-199 limits assumed): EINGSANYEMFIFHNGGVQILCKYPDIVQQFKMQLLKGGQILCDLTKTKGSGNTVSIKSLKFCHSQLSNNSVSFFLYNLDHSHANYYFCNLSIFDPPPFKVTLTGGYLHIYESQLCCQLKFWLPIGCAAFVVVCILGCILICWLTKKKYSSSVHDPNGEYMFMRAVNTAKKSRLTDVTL
Test [4] addresses cynomolgus PD-1 (Macaca fascicularis (cynomolgus)). The test can be described thus: Octet (BLI), global 1:1 binding model.
Test [5] addresses cynomolgus ICOS (Macaca fascicularis (cynomolgus)). Kind of test: Octet (BLI), global 1:1 binding model. A general note: BLI is a label-free optical method that tracks binding on a fibre tip over time.
Another test has as its target huICOS (UniProt Q9Y6W8). Kind of test: Octet (BLI), global 1:1 binding model.
For a further test, the target named is human PD-1 (human) (UniProt Q15116). Kind of test: Octet (BLI), global 1:1 binding model.
Sequence of human PD-1 (human) (Q15116 25-170 limits assumed): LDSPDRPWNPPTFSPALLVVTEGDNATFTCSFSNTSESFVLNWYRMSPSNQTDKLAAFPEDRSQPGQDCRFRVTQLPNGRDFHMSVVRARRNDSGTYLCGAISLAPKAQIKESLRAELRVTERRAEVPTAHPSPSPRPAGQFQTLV

Sequence of cynomolgus ICOS (Macaca fascicularis (cynomolgus)) (Q9Y6W8 21-140 H101R limits assumed): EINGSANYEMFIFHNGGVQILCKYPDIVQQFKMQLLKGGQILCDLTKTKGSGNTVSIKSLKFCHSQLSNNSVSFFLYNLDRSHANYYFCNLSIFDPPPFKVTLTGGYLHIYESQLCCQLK
Sequence of huICOS (Q9Y6W8 21-140 limits assumed): as the sequence (Q9Y6W8 21-140 H101R limits assumed) above, with R81H counted along it
Sequence of cynomolgus PD-1 (Macaca fascicularis (cynomolgus)) (Q15116 other isoform, or with tags, fused parts or gaps limits assumed): as the sequence (Q15116 25-170 limits assumed) above, with D2E, P10A, V19L, T35A, Q75R, T144A counted along it

In the case of XmAb23104 (bispecific antibody), the EC10 in test [1] turned out to be 0.003 µg/mL; in test [3], 0.02 µg/mL. For the same substance, the values for the EC90 in test [1], in test [2] and in test [3] were 5.3 µg/mL, 7.1 µg/mL and 0.6 µg/mL, respectively. The Kd in test [4] was determined as 5.8 nM; in test [5], 2.6 nM; with huICOS, 2.9 nM; with human PD-1 (human) it was 2.8 nM.
